Source: publication PMC5515580

Tests used:
Recombinant PKA = Recombinant PKA (UniProt P17612)
MAST3-HA (human) = MAST3-HA (human) (UniProt O60307)
MAST3-HA (human), sequence (O60307 313-1021): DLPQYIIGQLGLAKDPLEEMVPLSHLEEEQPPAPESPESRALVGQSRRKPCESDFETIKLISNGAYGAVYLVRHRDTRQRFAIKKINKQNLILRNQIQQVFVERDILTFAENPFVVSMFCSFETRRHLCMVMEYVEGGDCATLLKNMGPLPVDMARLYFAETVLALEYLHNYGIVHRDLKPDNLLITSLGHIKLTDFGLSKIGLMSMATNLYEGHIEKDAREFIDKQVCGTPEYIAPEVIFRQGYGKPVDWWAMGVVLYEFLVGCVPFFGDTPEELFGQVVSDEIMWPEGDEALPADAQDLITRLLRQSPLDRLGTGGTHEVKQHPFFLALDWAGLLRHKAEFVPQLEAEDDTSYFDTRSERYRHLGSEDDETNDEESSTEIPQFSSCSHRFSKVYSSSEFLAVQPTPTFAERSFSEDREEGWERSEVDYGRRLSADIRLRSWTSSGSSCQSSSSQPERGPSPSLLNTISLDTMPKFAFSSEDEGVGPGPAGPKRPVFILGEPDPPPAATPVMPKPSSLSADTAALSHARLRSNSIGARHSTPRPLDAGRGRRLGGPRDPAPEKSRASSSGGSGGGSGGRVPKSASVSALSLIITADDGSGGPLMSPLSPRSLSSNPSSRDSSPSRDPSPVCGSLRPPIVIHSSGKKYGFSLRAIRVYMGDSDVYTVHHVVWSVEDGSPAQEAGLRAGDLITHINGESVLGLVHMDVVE

6xHis-ARPP-16, sequence (P56211 17-112): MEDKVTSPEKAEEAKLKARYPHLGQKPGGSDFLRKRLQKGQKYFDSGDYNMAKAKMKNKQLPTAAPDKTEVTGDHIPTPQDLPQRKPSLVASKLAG
P-S46-ARPP-16, sequence (P56211 17-112): as above

Km of phosphorylation of Ser88 by PKA (32P incorporation, 10-500 nM substrate; Figure 1d) (Recombinant PKA) [µM] | Km of phosphorylation of Ser46 by immunoprecipitated MAST3 (32P incorporation, 10-500 nM substrate, 2 min; Figure 1b) (MAST3-HA (human)) [µM] | Km of phosphorylation of Ser46 by immunoprecipitated MAST3 (32P incorporation, 10-500 nM substrate, 2 min; Figure 1—figure supplement 1) (MAST3-HA (human)) [µM] | Substance
0.87 | – | – | P-S46-ARPP-16 (from UniProt P56211-2 1-96) (natural protein)
1.69 | 0.09 | 0.092 | 6xHis-ARPP-16 (from UniProt P56211-2 1-96) (natural protein)
